This series deals with T1, LPE1 (mature, without transit peptide) (Arabidopsis thaliana, UniProt Q9SNB7 69-665).
T1 sequence: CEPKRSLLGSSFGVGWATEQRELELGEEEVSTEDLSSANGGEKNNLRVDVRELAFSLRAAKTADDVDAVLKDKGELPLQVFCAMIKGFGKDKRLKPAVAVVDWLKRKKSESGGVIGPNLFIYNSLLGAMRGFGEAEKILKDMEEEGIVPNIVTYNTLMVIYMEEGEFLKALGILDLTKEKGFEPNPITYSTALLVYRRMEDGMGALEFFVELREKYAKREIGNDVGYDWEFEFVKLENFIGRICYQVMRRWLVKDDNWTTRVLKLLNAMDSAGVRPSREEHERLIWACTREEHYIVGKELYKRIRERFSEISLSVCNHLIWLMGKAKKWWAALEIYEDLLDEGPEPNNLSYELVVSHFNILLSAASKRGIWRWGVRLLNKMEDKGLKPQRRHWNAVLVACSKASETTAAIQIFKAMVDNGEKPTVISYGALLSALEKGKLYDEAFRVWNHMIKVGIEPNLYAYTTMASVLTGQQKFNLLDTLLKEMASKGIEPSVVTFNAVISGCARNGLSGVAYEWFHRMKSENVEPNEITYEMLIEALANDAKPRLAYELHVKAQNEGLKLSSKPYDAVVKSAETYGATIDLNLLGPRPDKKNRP
Put plainly: EMSA. (In general: In EMSA bound probe runs differently from free probe, usually more slowly.)

One molecule from publication PMC6042084 can be followed below.

B1: psbA 5' UTR probe (full length, first 82 nt) (ssRNA)
RNA: UUCAUAACAAGCUCUCAAUUAUCUACUUAGAGAAUUUGUGCGCUUGGAGUCCCUGAUUAUUAAAUAAACCAAGGAUUUUACC
For the molecule B1, the binding result is “binds”.
